We go through two substances from paper PMC5175494.

In assay [1] the target is human cardiac T53C-IAANS TnC (human) (UniProt P63316). Kind of assay: stopped-flow fluorescence; apparent; 1 uM TnC T53C-IAANS with saturating Ca2+ and increasing concentrations of TnI128-180, Ca2+ removed with 10 mM EGTA; rate of Ca2+ dissociation followed by IAANS fluorescence; 15°C; 10 mM MOPS, 150 mM KCl, pH 7.0.
Assay [2] addresses Troponin C (UniProt P63316). The settings on record: cited from earlier work.

As to “TnI_(128−180) peptide (from UniProt P19429 128-180)”, in assay [1], the Kd came to 3000 nM.

Regarding Troponin I (from UniProt P19429), the Kd in assay [2] was 1200 nM.
